B1: SKM chimeric bovine-human IgG1 (ultralong CDR3) (antibody)
VH: QVQLRESGPSLVKPSQTLSLTCTASGFSLSDKAVGWVRQAPGKALEWLGSIDTGGNTGYNPGLKSRLSITKDNSKSQVSLSVSSVTTEDSATYYCTTVHQETLRSCPDGYIDNSGCTADWGCAALDCWRRRFGYHSTDPSHYTGATYIYTYSLHIDAWGQGLLVTVSS
VL: QAVLNQPSSVSGSLGQRVSITCSGSSSNVGNGYVSWYQLIPGSAPRTLIYGDTSRASGVPDRFSGSRSGNTATLTISSLQAEDEADYFCASAEDSSSNAVFGSGTTLTVL
B2: R2D9 chimeric bovine-human IgG1 (ultralong CDR3) (antibody)
VH: QVQLRESGPSLVKPSQTLSLTCTASGFSLSDKAIGWVRQAPGKALEWLGSIDTRGNTGYNPGLKSRLSITKDSSKSQVSLSVNSVTTEDSATYLCAIVQQITHKTCPNGYNWFDRCCSWDGTCGDGCCSNRAWPSGNGRADSSIGETYGYEFHVAAWGQGLLVTVSS
VL: B1 VL
B3: R4C1 chimeric bovine-human IgG1 (ultralong CDR3) (antibody)
VH: QVQLRESGPSLVKPSQTLSLTCTASGFSLSDKAVGWVRQAPGKPLEWLGSIDTAENTGYNPGLKSRLSITKDNSKSQVSLSVSSVTTEDSATYYCATVHQKTRKEKNCPDGYIYSSNTASGYDCGVWICRRVGSAFCSRTGDYTSPSEFDIYEFYVEGWGQGLLVTVSS
VL: B1 VL
B4: SKD chimeric bovine-human IgG1 (ultralong CDR3) (antibody)
VH: QVQLRESGPSLVKPSQTLSLTCTASGFSLSDKAVGWVRQAPGKALEWLGSIDTGGNTGYNPGLKSRLSITKDNSKSQVSLSVSSVTTEDSATYYCTTVHQRTSEKRSCPGGSSRRYPSGASCDVSGGACACYVSNCRGVLCPTLNEIVAYTYEWHVDAWGQGLLVTVSS
VL: B1 VL

Experiments:
[1] = biological target: T1, SARS CoV-2 spike trimer protein from the parental Wuhan-Hu-1 isolate (recombinant stabilized extracellular domain) (SARS-CoV-2 (Wuhan-Hu-1)); test: ELISA, spike coated, chimeric IgG1; settings: remark: other sources report otherwise
[2] = biological target: T1, SARS CoV-2 spike trimer protein from …; test: ELISA on coated recombinant stabilized spike protein, panel WT, OD 450; settings: remark: other sources report otherwise
[3] = biological target: SARS-CoV-2 (antigen of the ELISA of FIG. 5E); test: ELISA on SARS-CoV-2 antigen (spike or RBD not stated), OD 450
[4] = biological target: T1, SARS CoV-2 spike trimer protein from …; test: ELISA on coated spike protein, anti-human Fc-HRP, OD450; settings: remark: other sources report otherwise

Binder | EC50 [1] [nM] | EC50 (read off the curve) [2] [nM] | EC50 (read off the curve) [3] [nM] | EC50 (read off the curve) [4] [nM]
B1 | 0.19 | 0.2 | – | –
B2 | – | – | 0.03 | –
B3 | 0.2 | 0.3 | – | 0.03
B4 | 0.16 | – | – | –

Source: US20260184766A1
